We go through 3 molecules from US20030232051A1 (GOVERNMENT OF THE UNITED STATES OF AMERICA AS REPRESENTED …, published 2003).

Sequences and labels used below:
B1: FcRγ chain (other, UniProt P30273 19-86, looked up)
chain: LGEPQLCYILDAILFLYGIVLTLLYCRLKIQVRKAAITSYEKSDGVYTGLSTRNQETYETLKHEKPPQ
notes: whole, on cells
B2: DAP10 (other, UniProt Q9UBK5 19-93, looked up)
chain: QTTPGERSSLPAFYPGTSGSCSGCGSLSLPLLAGLVAADAVASLLIVGAVFLCARPRRSPAQEDGKVYINMPGRG
notes: whole, on cells
B3: DAP12 (other, UniProt O43914 22-113, looked up)
chain: LRPVQAQAQSDCSCSTVSPGVLAGIVMGDLVLTVLIALAVYFLGRLVPRGRGAAEAATRKQRITETESPYQELQGQRSDVYSDLNTQRPYYK
notes: whole, on cells; also called DAP12 adaptor protein

T1 sequence (Q99706 22-377): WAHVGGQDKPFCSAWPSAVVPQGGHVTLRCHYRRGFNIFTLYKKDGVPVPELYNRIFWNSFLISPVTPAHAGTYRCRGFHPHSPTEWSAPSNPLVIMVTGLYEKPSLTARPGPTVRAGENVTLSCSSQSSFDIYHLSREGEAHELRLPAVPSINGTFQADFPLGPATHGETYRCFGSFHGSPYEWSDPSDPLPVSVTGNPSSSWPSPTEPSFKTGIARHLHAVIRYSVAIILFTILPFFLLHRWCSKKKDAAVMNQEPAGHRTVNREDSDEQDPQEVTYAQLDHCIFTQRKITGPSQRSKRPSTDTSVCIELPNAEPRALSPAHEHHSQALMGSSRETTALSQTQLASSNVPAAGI

This assay has as its target T1, KIR2DL4 receptor (on NK cells or on cells transfected with 2DL4) (human, UniProt Q99706 22-377).
T1 construct: whole, on cells; Endogenous on human NK cells and NK cell lines (NK3.3, NKL, NK92) or on transfected cells; also called CD158d
Description: transfection experiments in Ba/F3 and 293T cells.
Consider B1, for which the binding result was “no binding”. B2: the binding result is given as “no binding”. Next, B3: “no binding”.
